# Experimental data taken from patent publication US20110014635.
# Legend:
# [1] = tested on: T1, Alcadein β
# T1 sequence: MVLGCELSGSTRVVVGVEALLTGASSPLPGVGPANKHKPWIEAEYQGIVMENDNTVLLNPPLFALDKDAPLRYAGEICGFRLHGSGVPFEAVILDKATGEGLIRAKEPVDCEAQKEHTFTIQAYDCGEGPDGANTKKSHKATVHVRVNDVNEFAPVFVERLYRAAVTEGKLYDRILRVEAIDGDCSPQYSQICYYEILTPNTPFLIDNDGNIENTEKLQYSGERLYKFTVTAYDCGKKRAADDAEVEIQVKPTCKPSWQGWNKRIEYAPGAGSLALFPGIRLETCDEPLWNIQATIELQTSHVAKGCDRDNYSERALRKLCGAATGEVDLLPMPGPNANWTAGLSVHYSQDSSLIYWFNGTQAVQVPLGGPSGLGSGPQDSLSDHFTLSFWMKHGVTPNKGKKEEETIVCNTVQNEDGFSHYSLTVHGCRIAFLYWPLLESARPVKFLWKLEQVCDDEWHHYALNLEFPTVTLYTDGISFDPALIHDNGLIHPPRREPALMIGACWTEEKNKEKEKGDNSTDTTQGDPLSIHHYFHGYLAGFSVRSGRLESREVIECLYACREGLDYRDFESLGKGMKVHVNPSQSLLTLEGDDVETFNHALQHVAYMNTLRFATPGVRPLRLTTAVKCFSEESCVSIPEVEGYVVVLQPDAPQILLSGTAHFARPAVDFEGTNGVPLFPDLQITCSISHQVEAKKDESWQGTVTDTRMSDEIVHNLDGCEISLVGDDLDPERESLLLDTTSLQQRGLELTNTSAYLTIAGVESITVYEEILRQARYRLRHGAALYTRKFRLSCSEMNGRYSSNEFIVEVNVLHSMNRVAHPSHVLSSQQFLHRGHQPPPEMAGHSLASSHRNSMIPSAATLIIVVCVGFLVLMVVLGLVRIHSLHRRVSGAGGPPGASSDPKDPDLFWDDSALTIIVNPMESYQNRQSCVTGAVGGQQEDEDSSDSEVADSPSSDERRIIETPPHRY
# [2] = tested on: T2, Alcadein α (human Alcα1)
# T2 sequence: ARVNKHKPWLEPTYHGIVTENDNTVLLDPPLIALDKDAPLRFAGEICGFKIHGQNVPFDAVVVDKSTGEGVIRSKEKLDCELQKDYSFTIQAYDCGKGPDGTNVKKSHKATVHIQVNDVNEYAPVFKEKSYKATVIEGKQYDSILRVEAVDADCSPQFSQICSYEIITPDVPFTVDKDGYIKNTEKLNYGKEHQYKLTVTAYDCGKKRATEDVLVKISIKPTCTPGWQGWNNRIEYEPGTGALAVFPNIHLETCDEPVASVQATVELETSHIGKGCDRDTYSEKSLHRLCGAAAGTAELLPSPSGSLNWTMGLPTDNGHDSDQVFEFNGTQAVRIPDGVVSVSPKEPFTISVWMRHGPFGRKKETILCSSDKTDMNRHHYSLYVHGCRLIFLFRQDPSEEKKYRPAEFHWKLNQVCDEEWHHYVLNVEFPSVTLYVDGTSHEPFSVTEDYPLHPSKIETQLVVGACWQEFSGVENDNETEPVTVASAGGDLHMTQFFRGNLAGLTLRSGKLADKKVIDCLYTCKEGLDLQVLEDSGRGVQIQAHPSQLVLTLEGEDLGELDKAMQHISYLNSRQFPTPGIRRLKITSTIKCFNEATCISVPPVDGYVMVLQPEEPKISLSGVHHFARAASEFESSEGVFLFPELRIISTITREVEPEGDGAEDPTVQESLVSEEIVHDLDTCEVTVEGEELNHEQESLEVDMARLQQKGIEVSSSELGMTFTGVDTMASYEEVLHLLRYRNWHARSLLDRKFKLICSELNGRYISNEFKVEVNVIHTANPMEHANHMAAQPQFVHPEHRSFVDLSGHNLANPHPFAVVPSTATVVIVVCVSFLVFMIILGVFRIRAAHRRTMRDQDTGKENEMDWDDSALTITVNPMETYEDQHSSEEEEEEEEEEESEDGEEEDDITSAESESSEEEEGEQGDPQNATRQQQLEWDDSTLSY
# [3] = tested on: T3, Alcadein γ
# T3 sequence: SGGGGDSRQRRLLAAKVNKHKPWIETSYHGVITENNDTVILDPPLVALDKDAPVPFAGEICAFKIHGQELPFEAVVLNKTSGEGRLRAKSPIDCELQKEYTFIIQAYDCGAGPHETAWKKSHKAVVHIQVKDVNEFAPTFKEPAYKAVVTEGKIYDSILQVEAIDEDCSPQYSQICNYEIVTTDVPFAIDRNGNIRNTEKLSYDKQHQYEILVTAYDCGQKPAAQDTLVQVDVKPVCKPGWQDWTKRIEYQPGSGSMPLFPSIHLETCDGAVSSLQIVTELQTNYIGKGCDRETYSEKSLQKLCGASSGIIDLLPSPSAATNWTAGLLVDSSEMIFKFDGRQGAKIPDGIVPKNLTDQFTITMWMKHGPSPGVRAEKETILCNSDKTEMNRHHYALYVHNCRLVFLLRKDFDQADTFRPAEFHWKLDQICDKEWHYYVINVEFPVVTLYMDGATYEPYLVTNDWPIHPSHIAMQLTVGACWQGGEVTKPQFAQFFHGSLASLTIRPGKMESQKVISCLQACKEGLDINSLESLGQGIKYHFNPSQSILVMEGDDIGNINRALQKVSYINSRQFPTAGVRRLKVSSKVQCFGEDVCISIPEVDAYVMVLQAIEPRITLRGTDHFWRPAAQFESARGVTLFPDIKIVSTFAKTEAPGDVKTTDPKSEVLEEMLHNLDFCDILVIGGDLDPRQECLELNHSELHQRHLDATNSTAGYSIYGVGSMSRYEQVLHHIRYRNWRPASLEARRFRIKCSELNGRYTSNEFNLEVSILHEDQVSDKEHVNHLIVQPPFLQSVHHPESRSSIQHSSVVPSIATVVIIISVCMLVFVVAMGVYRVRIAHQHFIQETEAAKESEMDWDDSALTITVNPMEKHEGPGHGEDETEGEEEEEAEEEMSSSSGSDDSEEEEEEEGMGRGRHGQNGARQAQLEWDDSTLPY
substance,measurement,setting,value
"presenilin (endogenous, HEK293 cells)","fragments containing the C-terminal from incubated membrane fractions, Western blot",[1],such fragments were not detected in the samples to which the presenilin inhibitor was added
same,"fragments containing the C-terminal (Alcα-ICD) from incubated membrane fractions, Western blot",[2],such fragments were not detected in the samples to which the presenilin inhibitor was added
same,"fragments containing the C-terminal from incubated membrane fractions, Western blot",[3],such fragments were not detected in the samples to which the presenilin inhibitor was added
